Assay results reported in publication doi:10.1101/2025.06.12.659244 (bioRxiv, 2025).

B1: St3 Cas1 (C-terminal StrepII-Tag), Cas1 homodimer of the St3 Cas1-Cas2 integrase (enzyme, S. thermophilus DGCC 7710)
chain: MAGWRTVVVNIHSKLSYKNNHLIFRNSYKTEMIHLSEIDILLLETTDIVLTTMLVKRLVDENILVIFCDDKRLPTAFLTPYYARHDSSLQIARQIAWKENVKCEVWTAIIAQKILNQSYYLGECSFFEKSQSIMELYHGLERFDPSNREGHSARIYFNTLFGNDFTRESDNDINAALDYGYTLLLSMFAREVVVCGCMTQIGLKHANQFNQFNLASDIMEPFRPIIDRIVYQNRHNNFVKIKKELFSIFSETYLYNGKEMYLSNIVSDYTKKVIKALNQLGEEIPEFRI
B2: St3 Cas2 (untagged), Cas2 homodimer of the St3 Cas1-Cas2 integrase (natural protein, S. thermophilus DGCC 7710)
chain: MSYRYMRMILMFDMPTDTAEERKAYRKFRKFLLSEGFIMHQFSVYSKLLLNHTANTAMVGRLKANNPKKGNITILTVTEKQFARMIYLYGDKNTSIANSEERLVFLGDNYCDED
B3: St3Csn2^Y212R+I213R+M215R (Interface 1 mutant of St3Csn2) (natural protein, S. thermophilus DGCC 7710, UniProt G3ECR4 1-219, looked up)
chain: MKINFSLLDEPMEVNLGTVLVIEDVSVFAQLVKEFYQYDEQSNLTIFDSKIRSIRSSELLLITDILGYDINTSQVLKLLHTDIVSQLNDKPEVRSEIDSLVSLITDIIMAECIENELDIEYDEITLLELIKALGVRIETKSCTVFEKIFEILQIFKYLVKKRILVFVNSLSYFSKDEIYQILEYTKLSQADVLFLEPRQIEGIQQFILDKDRRLRPYNN
B4: St3 Cas1 (C-terminal HisTag), Cas1 homodimer of the St3 Cas1-Cas2 integrase (enzyme, S. thermophilus DGCC 7710)
chain: MAGWRTVVVNIHSKLSYKNNHLIFRNSYKTEMIHLSEIDILLLETTDIVLTTMLVKRLVDENILVIFCDDKRLPTAFLTPYYARHDSSLQIARQIAWKENVKCEVWTAIIAQKILNQSYYLGECSFFEKSQSIMELYHGLERFDPSNREGHSARIYFNTLFGNDFTRESDNDINAALDYGYTLLLSMFAREVVVCGCMTQIGLKHANQFNQFNLASDIMEPFRPIIDRIVYQNRHNNFVKIKKELFSIFSETYLYNGKEMYLSNIVSDYTKKVIKALNQLGEEIPEFRI
B5: St3Csn2 (accessory protein Csn2 of the S. thermophilus DGCC 7710 CRISPR3 system), homotetrameric ring (natural protein)
chain: MKINFSLLDEPMEVNLGTVLVIEDVSVFAQLVKEFYQYDEQSNLTIFDSKIRSIRSSELLLITDILGYDINTSQVLKLLHTDIVSQLNDKPEVRSEIDSLVSLITDIIMAECIENELDIEYDEITLLELIKALGVRIETKSCTVFEKIFEILQIFKYLVKKRILVFVNSLSYFSKDEIYQILEYTKLSQADVLFLEPRQIEGIQQFILDKDYILMPYNN

Columns and labels:
cryo-EM structure [1] = target: the molecule itself; assay: cryo-EM structure
cryo-EM structure [2] = target: the molecule itself; assay: cryo-EM structure; remark: listed apart in the source
SEC-MALS = target: the molecule itself; assay: SEC-MALS

| Protein | stoichiometry N (cryo-EM structure [1]) | stoichiometry N (cryo-EM structure [2]) | also measured |
| --- | --- | --- | --- |
| B1 | 2 | – | – |
| B2 | 2 | – | – |
| B3 | – | 4 | – |
| B4 | – | 2 | – |
| B5 | – | – | stoichiometry N (SEC-MALS): 4 |
